B1: glyceraldehyde-3-phosphate dehydrogenase type 1 from Escherichia coli, wild type (enzyme, UniProt P0A9B2 1-331, looked up)
chain: MTIKVGINGFGRIGRIVFRAAQKRSDIEIVAINDLLDADYMAYMLKYDSTHGRFDGTVEVKDGHLIVNGKKIRVTAERDPANLKWDEVGVDVVAEATGLFLTDETARKHITAGAKKVVMTGPSKDNTPMFVKGANFDKYAGQDIVSNASCTTNCLAPLAKVINDNFGIIEGLMTTVHATTATQKTVDGPSHKDWRGGRGASQNIIPSSTGAAKAVGKVLPELNGKLTGMAFRVPTPNVSVVDLTVRLEKAATYEQIKAAVKAAAEGEMKGVLGYTEDDVVSTDFNGEVCTSVFDAKAGIALNDNFVKLVSWYDNETGYSNKVLDLIAHISK
notes: glyceraldehyde-3-phosphate dehydrogenase type 1 (EcGAPDH1), Escherichia coli; EC 1.2.1.12; also called EcGAPDH1; WT; source: purified as previously described [24]
B2: EcGAPDH1 mutant H177A (enzyme, Escherichia coli, UniProt P0A9B2 1-331, looked up)
chain: MTIKVGINGFGRIGRIVFRAAQKRSDIEIVAINDLLDADYMAYMLKYDSTHGRFDGTVEVKDGHLIVNGKKIRVTAERDPANLKWDEVGVDVVAEATGLFLTDETARKHITAGAKKVVMTGPSKDNTPMFVKGANFDKYAGQDIVSNASCTTNCLAPLAKVINDNFGIIEGLMTTVAATTATQKTVDGPSHKDWRGGRGASQNIIPSSTGAAKAVGKVLPELNGKLTGMAFRVPTPNVSVVDLTVRLEKAATYEQIKAAVKAAAEGEMKGVLGYTEDDVVSTDFNGEVCTSVFDAKAGIALNDNFVKLVSWYDNETGYSNKVLDLIAHISK
notes: glyceraldehyde-3-phosphate dehydrogenase type 1 (EcGAPDH1), Escherichia coli; Made from the wild-type vector by overlap extension PCR; source: purified (Ni-NTA, size-exclusion chromatography)
B3: EcGAPDH1 double mutant C150A+H177A (enzyme, Escherichia coli, UniProt P0A9B2 1-331, looked up)
chain: MTIKVGINGFGRIGRIVFRAAQKRSDIEIVAINDLLDADYMAYMLKYDSTHGRFDGTVEVKDGHLIVNGKKIRVTAERDPANLKWDEVGVDVVAEATGLFLTDETARKHITAGAKKVVMTGPSKDNTPMFVKGANFDKYAGQDIVSNASATTNCLAPLAKVINDNFGIIEGLMTTVAATTATQKTVDGPSHKDWRGGRGASQNIIPSSTGAAKAVGKVLPELNGKLTGMAFRVPTPNVSVVDLTVRLEKAATYEQIKAAVKAAAEGEMKGVLGYTEDDVVSTDFNGEVCTSVFDAKAGIALNDNFVKLVSWYDNETGYSNKVLDLIAHISK
notes: glyceraldehyde-3-phosphate dehydrogenase type 1 (EcGAPDH1), Escherichia coli; source: purified (Ni-NTA, size-exclusion chromatography)
B4: EcGAPDH1 mutant C150A (enzyme, Escherichia coli, UniProt P0A9B2 1-331, looked up)
chain: MTIKVGINGFGRIGRIVFRAAQKRSDIEIVAINDLLDADYMAYMLKYDSTHGRFDGTVEVKDGHLIVNGKKIRVTAERDPANLKWDEVGVDVVAEATGLFLTDETARKHITAGAKKVVMTGPSKDNTPMFVKGANFDKYAGQDIVSNASATTNCLAPLAKVINDNFGIIEGLMTTVHATTATQKTVDGPSHKDWRGGRGASQNIIPSSTGAAKAVGKVLPELNGKLTGMAFRVPTPNVSVVDLTVRLEKAATYEQIKAAVKAAAEGEMKGVLGYTEDDVVSTDFNGEVCTSVFDAKAGIALNDNFVKLVSWYDNETGYSNKVLDLIAHISK
notes: as for B2
B5: EcGAPDH1 mutant C150S (enzyme, Escherichia coli, UniProt P0A9B2 1-331, looked up)
chain: MTIKVGINGFGRIGRIVFRAAQKRSDIEIVAINDLLDADYMAYMLKYDSTHGRFDGTVEVKDGHLIVNGKKIRVTAERDPANLKWDEVGVDVVAEATGLFLTDETARKHITAGAKKVVMTGPSKDNTPMFVKGANFDKYAGQDIVSNASSTTNCLAPLAKVINDNFGIIEGLMTTVHATTATQKTVDGPSHKDWRGGRGASQNIIPSSTGAAKAVGKVLPELNGKLTGMAFRVPTPNVSVVDLTVRLEKAATYEQIKAAVKAAAEGEMKGVLGYTEDDVVSTDFNGEVCTSVFDAKAGIALNDNFVKLVSWYDNETGYSNKVLDLIAHISK
notes: as for B2

Biological target: the molecule itself
Experiment: crystal structure; hanging-drop vapor diffusion at 20 °C, protein 30 mg/mL; space group P4(1)2(1)2; complexes with NAD and phosphate, G3P or BPG; four subunits (O, P, Q, R) in each structure

Stoichiometry N, 4:
B1
B2
B3
B4
B5
